The text below walks through data of patent US20200377597A1 (SUNSHINE GUOJIAN PHARMACEUTICAL SHANGHAI CO LT, published 2020).

Where a chain is given by its changes, count along the chain named.

In assay [1] the target is human PD-1 (human, UniProt Q15116 25-288). The assay is described as follows: cell-based or functional assay.
The target of assay [2] is T1, monovalent human PD-1 (purchased from Sino Biological Inc.) (human, UniProt Q15116 25-167).
T1 construct: Bought reagent
Nature of the assay: SPR Biacore T200; antibody captured on Protein A/G, monovalent human PD-1 as analyte. The text has this: The first method was as follows: A CM5 sensor chip (GE healthcare) was activated by the Amine Coupling Kit (GE healthcare) and the Protein A/G fusion protein (Thermo Pierce) was immobilized on the chip with an amount of 2000 RU. FC3 (Flow cell 3) was a reference channel, and FC4 (Flow cell 4) was a sample channel.
Background: In SPR one partner is held on a chip, and binding of the other changes the refractive index at the surface.

In assay [3] the target is T2, human PD-1-hFc (human, UniProt Q15116 25-170, biotin-labelled with EZ-Link Sulfo-NHS-Biotin in the second SPR method).
T2 construct: extracellular domain; also called PD-1-hFc antigen; PD-1-hFc fusion protein; not shown: Fc region of human IgG1
The assay is described as follows: SPR Biacore T200; biotinylated PD-1-hFc on SA chip, antibody as analyte. The procedure: The second determination method was as follows: PD-1-hFc in Example 1 was biotin-labelled using EZ-Link™ Sulfo-NHS-Biotin (Thermo Fisher Scientific), and the specific operation was carried out according to the instructions provided by the manufacturer. After labeling, the excess biotin labeling reagent was removed by dialysis; the aforementioned biotinylated PD-1-hFc fusion protein was immobilized on a chip using Sensor chip SA (GE healthcare). FC3 (Flow cell 3) was a reference channel, and FC4 (Flow cell 4) was a sample channel.

The target in assay [4] is T3, ICOS-hFc (UniProt Q9Y6W8 21-141).
T3 construct: Bought reagent; construct not described; not shown: hFc of a bought product
T3 sequence (looked up): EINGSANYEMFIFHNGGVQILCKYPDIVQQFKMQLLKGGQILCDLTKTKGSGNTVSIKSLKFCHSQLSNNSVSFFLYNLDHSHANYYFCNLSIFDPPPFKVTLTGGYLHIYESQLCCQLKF
Nature of the assay: ELISA, plate coated with ICOS-hFc at 2 ug/ml, detection with HRP goat anti-human Fab, OD450. On the procedure:
(§1) The protein molecules such as CD28, CTLA-4, and ICOS belong to the same family as PD-1, and the sequences have homology. […] Each well was added with 200 μl of coating solution containing 1% BSA, and blocked at room temperature for 4 hours, then patted dry, and stored in a refrigerator at -20° C. until use. […] 100 μl of HRP-labeled goat anti-human Fab antibody (purchased from Sigma) diluted 1:5000 with PBST was added and incubated at room temperature for 1 hour; washed 3 times with PBST and patted dry. 100 μl of chromogenic solution (ELISA chromogenic solution A and chromogenic solution B were mixed in a volume ratio of 1:1 before use) was added to each well, then 100 μl of 2M H₂SO₄ stop solution was added to each well to stop the reaction. The OD value of each well was immediately measured at a wavelength of 450 nm using a microplate reader (Molecular Device).
On the technique in general: ELISA stands for enzyme-linked immunosorbent assay.

Assay [5] has as its target T4, CD28-hFc (UniProt P10747 19-152).
T4 construct: Bought reagent; construct not described; not shown: hFc of a bought product
Nature of the assay: ELISA, plate coated with CD28-hFc at 2 ug/ml, detection with HRP goat anti-human Fab, OD450. On the procedure: as §1

Chain of human PD-1 (Q15116 25-288): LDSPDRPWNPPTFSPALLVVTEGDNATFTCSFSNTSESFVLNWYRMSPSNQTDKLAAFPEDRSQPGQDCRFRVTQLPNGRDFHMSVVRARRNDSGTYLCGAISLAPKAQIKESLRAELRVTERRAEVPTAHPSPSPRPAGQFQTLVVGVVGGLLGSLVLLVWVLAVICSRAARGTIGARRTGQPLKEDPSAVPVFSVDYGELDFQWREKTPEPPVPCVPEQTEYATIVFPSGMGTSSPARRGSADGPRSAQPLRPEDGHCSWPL
T1 sequence (Q15116 25-167 limits assumed): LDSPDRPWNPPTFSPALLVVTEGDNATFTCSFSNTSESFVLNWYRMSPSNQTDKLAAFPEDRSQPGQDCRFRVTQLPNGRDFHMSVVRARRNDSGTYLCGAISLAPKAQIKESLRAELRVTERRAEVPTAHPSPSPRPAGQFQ
T2 sequence (Q15116 25-170): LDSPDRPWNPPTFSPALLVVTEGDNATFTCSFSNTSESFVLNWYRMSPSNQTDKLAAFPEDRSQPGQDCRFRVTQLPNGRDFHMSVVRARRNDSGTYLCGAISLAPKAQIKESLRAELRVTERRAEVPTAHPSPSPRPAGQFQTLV

B1: mAb1-25-Chimeric (antibody, human IgG4 S228P, kappa, V domains shown)
VH: EVKLVESGGDLVKPGGSLKLSCVASGFAFSSYDMSWVRQTPEKRLEWVATISGGGRYTYYPDTVKGRFTISRDNARNTHYLQMSSLRSEDTALYFCASPYGGYFDVWGAGTTVTVSS
VL: DIVLTQSPATLSVTPGARVSLSCRASQSISNFLHWYQQKSHESPRLLIKYASQSISGIPSRFSGSGSGTDFTLSISSVETEDFGMYFCQQSNSWPHTFGAGTKLELKR
notes: Murine variable regions spliced to human IgG4 and Kappa constant regions; expressed in HEK293; also called chimeric antibody of murine antibody No. 1-25
The term Kd denotes a measure of binding affinity in units of concentration. A word on the koff: it is the first-order rate constant of dissociation. Read a high koff as a short-lived complex. One may read the kon as the second-order rate constant of association. Turning to B1, in assay [1], the “Cell proliferation (FIG. 3), MLR EC50” value was 0.00669 µg/mL; the “IFN-γ secretion (FIG. 2), MLR EC50” value stood at 0.0254 µg/mL; the “IL-2 secretion (FIG. 1), MLR EC50” value is 0.00995 µg/mL. In assay [2], this molecule gave a Kd of 0.231 nM, a koff of 4.14e-05 s⁻¹ and a kon of 179000 M⁻¹ s⁻¹.

B2: mAb1-15-Humanized (antibody, human IgG4 S228P, kappa, V domains shown)
VH: EVQLVESGGGLVQPGGSLRLSCAASGFTFSSYDMSWVRQAPGKRLEWVATISGGGRYTYYPDSVKGRFTISRDNAKNSLYLQMNSLRAEDTAVYYCANRYDVDWFAYWGQGTLVTVSS
VL: EIVLTQSPATLSLSPGERATLSCRASQSISNNLHWYQQKPGQAPRLLIKYASQSISGIPARFSGSGSGTDFTLTISSLEPEDFAVYFCQQSNSWPLTFGQGTKVEIKR
notes: Human IgG4/Kappa, expressed in HEK293, purified on Protein A; also called humanized antibody No. 1-15
As to B2, in assay [1], the “Cell proliferation (FIG. 3), MLR EC50” value is 0.0172 µg/mL; the “IFN-γ secretion (FIG. 2), MLR EC50” value was 0.0557 µg/mL; the “IL-2 secretion (FIG. 1), MLR EC50” value was 0.0165 µg/mL. In assay [3], this molecule had a dissociation constant (Kd) of 0.0408 nM, a koff of 3.12e-05 s⁻¹ and an on-rate (kon) of 764000 M⁻¹ s⁻¹. In addition, in assay [2], the affinity, expressed as Kd, was 4.28 nM; the off-rate constant (koff) amounted to 0.000117 s⁻¹; the kon is 27300 M⁻¹ s⁻¹.

B3: mAb1-15-Chimeric (antibody, human IgG4 S228P, kappa, V domains shown)
VH: B2 VH with Q3N, Q13K, R19K, A40T, G42E, S78N, N84S, A88S, V93L, S118A
VL: B1 VL with A17D, R18S, F32N, S76N, H96L, K107N
notes: Murine variable regions spliced to human IgG4 and Kappa constant regions; expressed in HEK293; also called chimeric antibody of murine antibody No. 1-15
B3: in assay [1], the “Cell proliferation (FIG. 3), MLR EC50” value turned out to be 0.0146 µg/mL; the “IFN-γ secretion (FIG. 2), MLR EC50” value is 0.0284 µg/mL; the “IL-2 secretion (FIG. 1), MLR EC50” value is 0.0236 µg/mL. In assay [2], this molecule had a Kd of 2.34 nM, a koff of 0.000148 s⁻¹ and an on-rate constant (kon) of 62900 M⁻¹ s⁻¹.

B4: mAb1-25-Humanized (antibody, human IgG4 S228P, kappa, V domains shown)
VH: EVKLVESGGGLVQPGGSLRLSCAASGFAFSSYDMSWVRQAPGKRLEWVATISGGGRYTYYPDTVKGRFTISRDNAKNSHYLQMNSLRAEDTAVYFCASPYGGYFDVWGQGTLVTVSS
VL: B2 VL with N32F, L96H
notes: Human IgG4/Kappa, expressed in HEK293E, purified on Protein A; also called humanized antibody No. 1-25
Regarding B4, the binding result in assay [4] and in assay [5] was “no binding (tested: log 3.6 (about 4000 ng/ml))” in each case.
